Reference: patent US20250250335A1 (SHENGHE CHINA BIOPHARMACEUTICAL, published 2025)
Changes are numbered by the printed parent chain. Like-named read-outs stand apart in the source and are kept apart here.

B1: Antibody 12 (antibody, V domains shown)
VH: EVKLVESGGGLVQPGGSLSLSCAVSGFIFTDYFMSWVRQPPGKTLEWLALIRNKANGYIIEYSESVKGRFTISRGNSQSIFYLQMNALRTEDSATYYCARDIGIRWNFDVWGAGTTVTVSS
VL: QIVLTQSPAIMSASPGEKVTMTCSATSRVTYMHWYQQKSGTSPKRWIYATSTLASGVPARFSGSGSGTSYSLTISSMEAEDAATYYCQQWSYNPPTFGSGTKLEIK
notes: Mouse-derived hybridoma antibody; also called mouse-derived antibody 12
B2: Antibody 3 (antibody, V domains shown)
VH: EVQMVESGGGLVKPGGSLKLSCAASGFTFSDYYMYWVRQSPEKRLEWVATISDAGTYTSYLDSVKGRFIISRDNAKNNLYLQMSSLKSEDTAIYYCARNYYGSSPYGMDYWGQGTSVTVSS
VL: B1 VL with T26S, R28S, T30I, A49D, T52K, Y92S, N93H, P95L, S99A, I105L
notes: Mouse-derived hybridoma antibody; also called mouse-derived antibody 3
B3: Antibody E (antibody, human IgG1, kappa, V domains shown)
VH: EVQLVESGGGLVQPGGSLRLSCATSEFTLIDYYMSWVRQAPGKALEWVGYIRNKVNGHTTDYIASVKGRFTISRDDSKNSLYLQMNSLKTEDTAVYYCVRDPGINWYFDVWGQGTLVTVSS
VL: EIVLTQSPATLSLSPGERATLSCRASSRVTYMHWYQQKPGQSPRPLISATSNLASGIPARFSGSGSGTDYTLTISSLEPEDFAVYYCQQWSYNPPTFGGGTKLELKR
notes: humanized from mouse-derived antibody 2; also called humanized antibody E
B4: Antibody I (antibody, human IgG1, kappa, V domains shown)
VH: B3 VH with Q3K, A40S, V48L, V95T
VL: B3 VL with E1Q, Q41S, R44K, V84T
notes: humanized from mouse-derived antibody 2; also called humanized antibody I
B5: Antibody F (antibody, human IgG1, kappa, V domains shown)
VH: B3 VH
VL: B3 VL with E1Q, Q41S, R44K, V84T
notes: humanized from mouse-derived antibody 2; also called humanized antibody F
B6: Antibody 5 (antibody, V domains shown)
VH: QIQLVQSGPELMKPGETVKISCKASGYTFTNYGMNWVKQAPGKGLKWLGWINTYTGKPTYADDIKERFVFSLETSASTAYLQINNLKNEDTATYFCARRDYRGWYFDVWGAGTPVTVSS
VL: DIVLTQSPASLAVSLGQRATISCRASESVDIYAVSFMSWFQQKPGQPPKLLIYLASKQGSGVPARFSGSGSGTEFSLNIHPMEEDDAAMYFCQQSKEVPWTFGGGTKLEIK
notes: Mouse-derived hybridoma antibody; also called mouse-derived antibody 5
B7: Antibody 4 (antibody, V domains shown)
VH: QIQLVQSGPELKKPGETVKISCKASGYTFTDYSLHWVKQVPVKGLKWMGWINTETGEPTYADDFKGRFAFSLDTSASSAYLQIHNLKNEDTATYFCASPVSLLFYYFTVWGAGTTVTVSA
VL: DIQMTQTTSSLSASLGDRVTISCRASQDISHFLNWYQQKPDGTVELLIYYTSRLLSGVPSRFSGSGSGTDYSLTIANLEQEDIATYFCQQGKTLPWTFGGGTKVEIK
notes: Mouse-derived hybridoma antibody; also called mouse-derived antibody 4
B8: Antibody 2 (antibody, V domains shown)
VH: EVKLVESGGGLVQPGGSLRLSCATSEFTLIDYYMSWVRQSPGKALEWLGYIRNKVNGHTTDYIASVKGRFAISRDNSQSILYLQMNTLRVEDSATYYCVRDPGINWYFDVWGAGTTVTVSS
VL: QIVLSQSPAILSASPGEKVTMTCRASSRVTYMHWYQQKPGSSPKPWISATSNLASGVPARFSGSGSGTSYSLTISRVEAEDAATYYCQQWSYNPPTFGAGTKLELN
notes: Mouse-derived hybridoma antibody; also called mouse-derived antibody 2

Columns and labels:
[1] = target: T1, human CEACAM5-his (ACRO CE5-H5226) (human, UniProt P06731 35-685); test: ELISA on coated human CEACAM5, OD450
T1 construct: Bought protein; not shown: His tag
T1 sequence (looked up): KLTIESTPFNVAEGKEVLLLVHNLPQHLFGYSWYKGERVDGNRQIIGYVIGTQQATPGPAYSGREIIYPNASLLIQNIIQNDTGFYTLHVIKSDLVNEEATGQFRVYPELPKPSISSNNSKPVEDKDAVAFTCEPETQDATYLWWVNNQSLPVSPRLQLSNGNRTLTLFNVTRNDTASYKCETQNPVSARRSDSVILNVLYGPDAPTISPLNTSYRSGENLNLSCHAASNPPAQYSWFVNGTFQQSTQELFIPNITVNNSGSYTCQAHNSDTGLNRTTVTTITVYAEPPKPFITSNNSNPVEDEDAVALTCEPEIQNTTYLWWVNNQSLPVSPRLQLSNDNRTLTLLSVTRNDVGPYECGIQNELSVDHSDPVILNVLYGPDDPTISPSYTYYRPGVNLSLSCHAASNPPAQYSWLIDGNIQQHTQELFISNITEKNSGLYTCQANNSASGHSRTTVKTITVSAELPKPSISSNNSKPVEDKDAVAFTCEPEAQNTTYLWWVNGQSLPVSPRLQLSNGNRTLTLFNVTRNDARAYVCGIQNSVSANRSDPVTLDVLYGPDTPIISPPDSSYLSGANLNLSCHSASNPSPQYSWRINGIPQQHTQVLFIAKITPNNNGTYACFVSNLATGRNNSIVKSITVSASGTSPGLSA
Method: (§1) The binding activity of the antibodies to human CEACAM5, human CEACAM6, and human CEACAM6 (AB) proteins was detected by ELISA. The plate coated with proteins was incubated at 4° C. overnight, and the 96-well ELISA plate blocked with 2% PBS-BSA was added with the antibody to be detected and incubated at 37° C. for 1 h. After washing 3 times with PBS containing 0.05% Tween, the absorbance value of each well was read at wavelength 450 nm with the gradient-diluted mouse-derived candidate antibody as the primary antibody and anti-mouse-IgG-FC-HRP as the secondary antibody, and the absorbance value of each well was read at wavelength 450 nm after the TMB color development.

Human-CEACAM6 (AB)-His = target: T2, Human-CEACAM6 (AB)-His (human, UniProt P40199 145-314); test: ELISA on coated human CEACAM6 (AB), OD450
T2 construct: Made in house, purified on a nickel column
T2 sequence (P40199 other isoform, or with tags, fused parts or gaps limits assumed): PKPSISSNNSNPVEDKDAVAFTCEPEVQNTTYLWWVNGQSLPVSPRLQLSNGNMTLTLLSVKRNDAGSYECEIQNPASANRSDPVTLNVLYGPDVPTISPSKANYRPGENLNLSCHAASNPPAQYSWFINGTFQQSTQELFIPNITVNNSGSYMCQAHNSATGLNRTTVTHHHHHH
Method: as §1

[2] = target: T1, human CEACAM5-his (ACRO CE5-H5226); test: ELISA on coated human CEACAM5, OD450; remark: listed apart in the source
Method: as §1

[3] = target: T3, CEACAM5 on the surface of the tumor cells (HPAFII cells) (UniProt P06731 35-685); test: flow cytometry on HPAFII cells (Mean-FITC); the cells carry CEACAM5 and CEACAM6, signal not divided between the two
T3 construct: whole, on cells
T3 sequence (looked up): T1 sequence (looked up)
Method: (§2) The antibody to be tested was taken as the initial concentration of 200 nM and diluted 5-fold with 6 gradients. The HPAFII cells (From USTC […] FOR ADVANCED STUDIES) in the incubator were taken out, and the cell suspension was transferred to a 15 mL centrifuge tube, centrifuged, and counted by resuspension in PBS. A blank control group (Blank), a negative control group (NC), an experimental group, a positive control group and the irrelevant antibody group were kept. […] The cell suspension was spread in a 96-well plate according to about 3×10⁵ cells/well. Centrifugation (1000 rpm, 5 min) was performed, followed by washing with PBS, re-centrifugation, and repeated twice to remove media residues. The supernatant was discarded, 100 μL of primary antibody solution and irrelevant antibody solution were added to the experimental group and irrelevant antibody group, respectively, and the cells were resuspended and incubated at room temperature for 1 h. The blank group, and the negative control group were incubated with an equal amount of PBS.
(§3) After 1 h, PBS was added to wash twice. After the supernatant was discarded, 100 μL of fluorescent secondary antibody dilution (Mouse-derived secondary antibody from Abcam ab6785) was added to each sample group, except for the blank group which was added with 100 μL of PBS. After incubation at room temperature and protected from light for 0.5 h, centrifugation was performed and PBS added to wash the samples twice. After the supernatant was discarded, 120 μL of PBS was added to resuspend and sequentially flow cytometry was performed to detect the mean fluorescence intensity. The concentration of the antibody was logarithmically taken as the horizontal coordinate, and the Sigmoidaldose-response (VariableSlope) method (GraphPadPrism Software, GraphPadSoftware, San Diego, California) was chosen to perform a nonlinear regression to obtain the binding activity curves of the antibody on HPAFII cells.

[4] = target: T4, CEACAM6 on the surface of the tumor cells (HPAFII cells) (UniProt P40199 35-320); test: as above
T4 construct: whole, on cells
T4 sequence (looked up): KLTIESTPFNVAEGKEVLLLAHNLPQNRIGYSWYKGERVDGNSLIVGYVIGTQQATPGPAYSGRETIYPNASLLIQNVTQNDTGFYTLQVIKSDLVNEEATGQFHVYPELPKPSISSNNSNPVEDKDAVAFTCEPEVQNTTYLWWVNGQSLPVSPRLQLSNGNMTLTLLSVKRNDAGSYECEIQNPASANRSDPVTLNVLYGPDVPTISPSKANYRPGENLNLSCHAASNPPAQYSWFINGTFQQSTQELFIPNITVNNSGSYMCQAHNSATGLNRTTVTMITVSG
Method: as §2, §3

[5] = target: T4, CEACAM6 on the surface of the tumor …; test: flow cytometry on HPAFII cells (Mean PE); the cells carry CEACAM5 and CEACAM6, signal not divided between the two
Method: Centrifugation (1000 rpm, 5 min) was performed, followed by washing with PBS, re-centrifugation, and repeated twice to remove media residues. The supernatant was discarded, 100 μL of primary antibody solution and irrelevant antibody solution were added to the experimental group and irrelevant antibody group, respectively, and the cells were resuspended and incubated at room temperature for 1 h. The blank group, and the negative control group were incubated with an equal amount of PBS.
as §3, with “(Secondary” for “(Mouse-derived secondary”, “ab98596)” for “ab6785)”

mouse CEACAM5 = target: T5, mouse CEACAM5 (mouse, UniProt Q3UKK2 35-947, limits assumed); test: ELISA on coated protein, OD450
T5 sequence (looked up): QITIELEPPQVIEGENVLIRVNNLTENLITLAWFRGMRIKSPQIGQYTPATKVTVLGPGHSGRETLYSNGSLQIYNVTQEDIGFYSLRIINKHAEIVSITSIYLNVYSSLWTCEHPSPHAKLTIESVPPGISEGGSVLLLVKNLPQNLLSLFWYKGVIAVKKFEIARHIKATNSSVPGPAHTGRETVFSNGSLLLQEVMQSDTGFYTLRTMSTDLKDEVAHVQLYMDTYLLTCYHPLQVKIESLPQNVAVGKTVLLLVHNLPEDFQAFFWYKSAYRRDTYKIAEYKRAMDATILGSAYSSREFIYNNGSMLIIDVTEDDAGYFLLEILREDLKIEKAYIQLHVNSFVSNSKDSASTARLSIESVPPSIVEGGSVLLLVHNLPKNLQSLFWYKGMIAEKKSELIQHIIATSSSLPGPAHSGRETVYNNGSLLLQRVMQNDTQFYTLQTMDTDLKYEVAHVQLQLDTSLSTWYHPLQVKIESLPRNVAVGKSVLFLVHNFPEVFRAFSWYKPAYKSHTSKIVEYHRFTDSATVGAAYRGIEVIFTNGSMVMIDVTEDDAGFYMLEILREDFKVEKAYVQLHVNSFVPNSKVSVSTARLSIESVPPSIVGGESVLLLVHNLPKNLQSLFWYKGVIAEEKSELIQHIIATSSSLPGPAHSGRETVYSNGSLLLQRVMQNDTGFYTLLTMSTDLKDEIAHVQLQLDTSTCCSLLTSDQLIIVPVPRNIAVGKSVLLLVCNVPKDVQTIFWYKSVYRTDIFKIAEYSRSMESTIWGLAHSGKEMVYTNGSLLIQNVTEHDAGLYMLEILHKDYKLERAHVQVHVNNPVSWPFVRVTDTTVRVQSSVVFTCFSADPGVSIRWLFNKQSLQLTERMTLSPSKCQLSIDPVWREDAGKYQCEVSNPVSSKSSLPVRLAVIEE
Method: The affinity of the antibodies to monkey CEACAM5, monkey CEACAM6, and mouse CEACAM5 proteins was determined by ELISA. The plates encapsulated with […] proteins were incubated at 4° C. overnight, and the antibodies to be detected were added to 96-well ELISA plates after being blocked with 2% PBS-BSA and incubated at 37° C. for 1 h. After washing 3 times with PBS containing 0.05% Tween, the absorbance value of each well was read at wavelength 450 nm with the antibody to be detected as the primary antibody and Goat anti-mouse IgG-FC-HRP as the secondary antibody, and the absorbance value of each well was read at wavelength 450 nm after the TMB color development. The specific binding to CEACAM5 and CEACAM6 of mouse and monkey was detected by Elisa method.

Binder	EC50 (read off the curve) [2]	EC50 (read off the curve) [3]	EC50 (read off the curve) [4]	binding result [5]	other results
B1	–	–	–	–	EC50 (read off the curve) [1]: ~0.02 µg/mL; EC50 (read off the curve) (Human-CEACAM6 (AB)-His): ~0.009 µg/mL
B2	~0.02 µg/mL	~1 nM	~1 nM	–	–
B3	–	–	–	binds	–
B4	–	–	–	binds	–
B5	–	–	–	binds	–
B6	–	–	–	–	binding result [2]: binds; EC50 (read off the curve) (Human-CEACAM6 (AB)-His): ~0.04 µg/mL
B7	~0.02 µg/mL	~2 nM	~2 nM	–	–
B8	~0.02 µg/mL	~3 nM	~3 nM	–	OD (mouse CEACAM5): 0.15 OD
